Measured values as given in article PMC5358725 (Genes & Development, 2017).

T1: Flag-3C-Mcm10-V5 (S. cerevisiae, UniProt P32354 1-571)
T1 sequence: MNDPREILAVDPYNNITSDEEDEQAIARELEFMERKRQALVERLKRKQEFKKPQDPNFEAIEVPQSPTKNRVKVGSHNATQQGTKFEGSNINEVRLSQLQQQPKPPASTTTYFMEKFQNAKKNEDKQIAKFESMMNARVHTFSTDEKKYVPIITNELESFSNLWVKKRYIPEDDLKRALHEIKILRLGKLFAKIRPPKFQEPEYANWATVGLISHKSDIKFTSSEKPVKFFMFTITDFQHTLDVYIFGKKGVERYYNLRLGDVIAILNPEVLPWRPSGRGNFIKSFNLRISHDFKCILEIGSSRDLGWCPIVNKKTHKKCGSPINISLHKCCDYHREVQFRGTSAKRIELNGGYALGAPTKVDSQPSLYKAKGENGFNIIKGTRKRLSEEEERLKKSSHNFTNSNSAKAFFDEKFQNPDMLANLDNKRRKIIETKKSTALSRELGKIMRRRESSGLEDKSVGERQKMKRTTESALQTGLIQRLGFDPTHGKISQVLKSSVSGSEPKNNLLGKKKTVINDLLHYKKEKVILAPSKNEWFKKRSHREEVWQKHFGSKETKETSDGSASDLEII

B1: MBP-Mcm2 196–299 (domain or fragment)
chain: EWITQPNVSRTIARELKSFLLEYTDETGRSVYGARIRTLGEMNSESLEVNYRHLAESKAILALFLAKCPEEMLKIFDLVAMEATELHYPDYARIHSEIHVRISD
B2: Mcm2 1–483 (C-terminally 6xHis-tagged) (domain or fragment)
chain: MSDNRRRRREEDDSDSENELPPSSPQQHFRGGMNPVSSPIGSPDMINPEGDDNEVDDVPDIDEVEEQMNEVDLMDDNMYEDYAADHNRDRYDPDQVDDREQQELSLSERRRIDAQLNERDRLLRNVAYIDDEDEEQEGAAQLDEMGLPVQRRRRRRQYEDLENSDDDLLSDMDIDPLREELTLESLSNVKANSYSEWITQPNVSRTIARELKSFLLEYTDETGRSVYGARIRTLGEMNSESLEVNYRHLAESKAILALFLAKCPEEMLKIFDLVAMEATELHYPDYARIHSEIHVRISDFPTIYSLRELRESNLSSLVRVTGVVTRRTGVFPQLKYVKFNCLKCGSILGPFFQDSNEEIRISFCTNCKSKGPFRVNGEKTVYRNYQRVTLQEAPGTVPPGRLPRHREVILLADLVDVSKPGEEVEVTGIYKNNYDGNLNAKNGFPVFATIIEANSIKRREGNTANEGEEGLDVFSWTEEEERE

Biological target: T1, Flag-3C-Mcm10-V5
Assay: co-IP

| Binder | binding result |
| --- | --- |
| B1 | binds |
| B2 | binds |
